The values that follow come from patent US20040204561A1, “Peptide aggregates” (priority 2002, published 2004).

Primed or numbered codes have the meaning given here. Ends that are not written are not given here. bbDTPA = DTPA chelating ligand bonded through a carbon of its ethylene backbone; bbDTPA″ = DTPA chelating ligand bound through a backbone ethylene carbon

Data set [1] in a line: Aggregation / gel formation behaviour in aqueous solution. The data set is classed as physicochemical. The protocol: EP1272L (0.0842 g) was suspended in 2 mL water. To this were added 160 μL 1N NaOH, bringing the pH of the solution to 7.5. The volume was taken to 5 mL with addition of water and the solution gently swirled until all solids were dissolved. The chelatables were monitored by titration using xylenol orange as an indicator for free gadolinium. Following titration, 86.4 μL of 241 mM stock solution of GdCl3 was added to the solution with stirring followed by 60 μL 1N NaOH. Low mass impurities were removed from the solution by centrifugation over a 0.02 μm anapore membrane (Vecta-Spin). This was followed by resuspension in 20 mL of water and filtration over a 5 μm (Durapore, low protein binding) syringe filter frit. At concentrations greater than 0.5 mM, EP1272L became a non-flowing viscous gel.
As described in Examples 1-8, a self-assembling peptide having the sequence AEAEAKAKAEAEAKAK (SEQ ID NO: 1) was chemically modified to include a metal binding moiety (an organic chelating ligand) via a glycine linker to the N-terminus of the peptide; see EP1272L in FIG. 3. Modified self-assembling peptides having the same metal binding moiety at the N-terminus and further including acidic moieties at the C-terminus of the peptide were also made (see EP 1593L and EP1594L in FIG. 3).

A short description of data set [2]: Relaxivity measurements in PBS (T1, inversion recovery). The data set is classed as physicochemical. An excerpt: First, solutions of EP 1272L (FW=2,243 Da) were concentrated and purified by centrifugation in a filter device with a nominal molecular weight limit of 300,000 Da. The formation of high molecular weight aggregates allowed EP1272L to be retained by the filter device. […] Third, SEC-LS column retention and light scattering measurements of EP1272L were consistent with a large species having a mass distribution of 4×10^6 to 13×10^6 Da, and a hydrodynamic radius in the range of 155 nm to 210 nm.
Relaxivity measurements were made in PBS. A relaxivity titration consisting of sequential additions of EP1272L (complexed to Gd(III)) to a tube containing approximately 0.6 mL of PBS was performed. Following each addition of EP1272, the sample was thoroughly mixed by manual agitation and the temperature allowed to equilibrate for 10 minutes at 37±2° C. prior to T1 determination. The longitudinal (T1) relaxation time was determined by use of the inversion recovery pulse sequence and fitting the intensity data to an exponential decay. Measurements at 20 MHz were made using a Bruker Minispec PC 120/125/Vts nuclear magnetic resonance process analyzer. The temperature was regulated with a Haake D8-GH circulating bath at 37±2° C. Measurements at 64.5 MHz were made using a Varian XL300 adjusted to a field strength of 1.5 T with a broad band variable temperature probe tuned to 64.5 MHz. The relaxivity of EP1272 at 0.5 T and 1.5 T were 24.9 mM^−1s^−1 and 21.0 mM^−1s^−1 respectively. The relaxivity of EP1593 at 0.5 T was assessed in a similar manner and was 19.9 mM^−1s^−1. The relaxivity of EP1594 was assessed in a similar manner at 0.5 T and was 22.0 mM^−1s^−1.

Data set [3] addresses streptavidin magnetic beads (Streptomyces avidinii, UniProt P22629). Briefly: Avidin affinity assay: capture by streptavidin magnetic beads, quantified by gadolinium ICP. The data set is classed as binding. The conditions noted are these: capture by streptavidin-coated beads, FIG. 8. Here is the method: Two self-assembling peptides comprising target binding moieties were prepared (FIG. 7). EP1595 contained a C-terminal biotin target binding moiety; EP 1596 contained a C-terminal aromatic target binding moiety (phenylundecane).
EP1272L aggregates were targeted to avidin by incorporation of a biotinylated peptide (e.g., an assembling peptide containing a target binding moiety (EP1595)) into the aggregates. To 70 μL of a 1.54 mM stock solution of EP1272L was added varying amounts of EP1595. The pH was then reduced to 1.5 by addition of 1N HCl to induce mixing of the peptides. The solution was neutralized by addition of 1N NaOH and the volume brought to 500 μL with addition of water. Aggregates containing 20% biotinylated peptide (5:1 ratio of EP1272 to EP1595), 4% biotinylated-peptide (25:1 ratio), and 0.5% biotinylated peptide (200:1) were prepared.
EP1272L aggregates containing the phenylundecane substituted peptide, EP1596, in a 10:1 ratio were prepared as described above.
The three EP1595/EP1272 formulations, one EP1596/EP1272 formulation, and an EP1272 formulation were assayed for affinity to streptavidin magnetic beads. Each sample was diluted so as to maintain a constant ratio of biotinylated peptide and streptavidin binding sites in the assay. Solutions without biotin were treated as though they contained 0.5% EP1595. […] The extent of capture was quantified by gadolinium ICP.

Sequence of streptavidin magnetic beads (P22629 25-183): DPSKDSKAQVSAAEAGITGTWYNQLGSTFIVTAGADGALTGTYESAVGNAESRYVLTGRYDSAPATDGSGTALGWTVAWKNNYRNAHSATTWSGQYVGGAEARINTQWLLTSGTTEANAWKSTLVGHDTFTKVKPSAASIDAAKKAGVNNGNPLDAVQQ

Turning to “AEAEAKAKAEAEAKAK (Targeted aggregate peptide) [reference compound]”, the “aggregation behaviour (macroscopic membrane formation)” value (“aggregation behaviour” below) in data set [1] is listed as “tended to form macroscopic membranes”.

For the substance “EP1272: EP1272L complexed to Gd(III) (GAEAEAKAKAEAEAKAK)”, the relaxivity is 24.9 mM⁻¹ s⁻¹ in data set [2] (0.5 T (20 MHz), 37±2° C.) and 21.0 mM⁻¹ s⁻¹ in data set [2] (1.5 T (64.5 MHz), 37±2° C.).

“EP1272L: self-assembling peptide AEAEAKAKAEAEAKAK (SEQ ID NO: 1) with bbDTPA chelating ligand via a glycine linker at the N-terminus (bbDTPA-GAEAEAKAKAEAEAKAK)”: the “aggregation behaviour” value in data set [1] is “tended to aggregate, but did not form macroscopic membranes”. The “concentration above which a non-flowing viscous gel forms” value in data set [1] (aqueous solution after complexing with Gd(III)) is on record as “greater than 0.5 mM”. The relaxivity in data set [2] (0.47 T) stood at 25 mM⁻¹ s⁻¹; in data set [2] (1.5 T (64.5 MHz), 37±2° C.) it was 21 mM⁻¹ s⁻¹. In addition, in data set [3], the “affinity for streptavidin beads” value is given as “substantially less affinity for streptavidin beads”.

Turning to “EP1593: EP1593L complexed to Gd(III) (GAEAEAKAKAEAEAKAK)”, the relaxivity in data set [2] (0.5 T (20 MHz), 37±2° C.) was 19.9 mM⁻¹ s⁻¹.

Take “EP1593L: self-assembling peptide having a covalently attached metal binding moiety (bbDTPA) and an acidic group at the C-terminus ({bbDTPA″}-GAEAEAKAKAEAEAKAK; also: acidic group at C-terminus, not given here)”: the “aggregation behaviour” value in data set [1] is “tended to aggregate, but did not form macroscopic membranes”.

Take “EP1594: EP1594L complexed to Gd(III) (GAEAEAKAKAEAEAKAK)”: in data set [2] (0.5 T (20 MHz), 37±2° C.), the relaxivity was determined as 22.0 mM⁻¹ s⁻¹.

As to “EP1594L: self-assembling peptide having a covalently attached metal binding moiety (bbDTPA) and an acidic group at the C-terminus ({bbDTPA″}-GAEAEAKAKAEAEAKAK; also: acidic group at C-terminus, not given here)”, the “aggregation behaviour” value in data set [1] was “tended to aggregate, but did not form macroscopic membranes”.
